Results reported in the DeepSol protein solubility set.

assay: soluble on expression in E. coli; label from the status in PepcDB or PDB records

Sequence | soluble on expression in E. coli
MGSDKIHHHHHHMKKSVMLLVCLLGLSACSTKFSYRFLDWAIGWEQEDYVTLDKTQQKAFDTLVEKMVFWHQSKELAHYVVQLKEVENLIKTNELTPLLWAEHVDIAKRHWFRVFEFAMPELLPIIMSLTDSQVKQILTKLREDEQALVKEFAGKSPEQLQKDADKRLQKQFEDWLGSVSAEQKSLIHQYNQQRLSTLDMWLEYRHEWLRQFEVALGQRADKVLLTERLTLLMTQPDELKSEQHKAFLRQNTEAFGTLLLAMNGSLSAKQSKHFYKKLGKLIQDLTELNQEALEKEFKSMKALST | not soluble
MGHHHHHHSHMAESHPWSGRPSSSPRRSSTFANYAWKHTIKPNRILIRNARPLVINFATDRLPIIKPVDQIILEDAGTVGSALNLPSESICTRPGLLLFGHYNNDVPVTPLVDFKPDEPLQVVLTAHKTIVVPPGEFVMIIVCVNFEKIKSLDLIIHEMSTSNIPLPPTCGQTFKNFNTATPSLEIYGDVIECNDDQKTCVFTAVFPGLHRRCSLHGPLNFMGFVNSVNITGTILRVYYSGVSEAAPDSILVKFKTSSAVAFSKNPCQGHVPSHDDTLIPLVYTGPTLRLLPLETISIPFNTSFVAQNPDLKAIIYDNNLKDIRISATMWTGEQTPILAHNLTAAVKLIHSGTVFARAAFFSTKENKKACTLKLCPSTILLPGGELSLDTSTLPNCFK | not soluble
FSNNNFVYTDGTHFALNGKSLYINGFNAYWLMYIAYDPSTRIKVTNTFQQASKYKMNVARTWAFSHGGSRPLQSAPGVYNEQMFQGLDFVISEAKKYGIHLIMSLVNNWDAFGGKKQYVEWAVQRGQKLTSDDDFFTNPMVKGFYKNNVKVVLTRVNTITKVAYKDDPTILSWELINEPRCPSDLSGKTFQNWVLEMAGYLKSIDSNHLLEIGLEGFYGNDMRQYNPNSYIFGTNFISNNQVQGIDFTTIHMYPNQWLPGLTQEAQDKWASQWIQVHIDDSKMLKKPLLIAEFGKSTKTPGYTVAKRDNYFEKIYGTIFNCAKSGGPCGGGLFWQVLGQGMSSFDDGYQVVLQESPSTSRVILLQSLRLSKLS | soluble
MPDEAVDGSTPDQGKKNNNGRGRGQGSGGNRGRGGSTANNNASRRPNPARQNQSSRQPTKVDMKKYERMISAAHTNFSDIPCGQKSIDCDICCKKNDVFGIGSCRHPVCAECVIRMRILGNSKTCPVCRSDIDILSFCTTDDDLANVPLSFKKTAHPDEDRYDIRFSNKIAGTKYEKYLAHVCKICKTDDGERLEFPSFMSLRQHMASRHEQSYCHICTDNLNLFSRERKTYTRDQLQRHMRSGDFDDKSFKGHPQCLFCEQKFLDEENRYRHLRKDHFFCQFCESDGTMTNVFFGKHDGLKKHYKEHHYICETEECREMGIAFANKFELDLHRANEHAERRNLIELGFGQRPSDPGRPIGRGRGLRSNEPPPPPVPRERIAVVQRQVETNPQSDPSQFTTVRSAQSKGVFTSTRSAYTSNQQEFPSLAPQAPPPNVRSSEFPRLNKANKPAAPAAPAVVDHFPSLGDSSSSSSAPPLRIKVPPLVKKRQPPPPAPAPQKAKASSARQNAPREEDDEYISRRDVPQAVVKVNNSLLRFDTVDDRVIPQNAKSNIQMIQRVDQKSAAESSSSAPSSGRLDFPALPAASAPMMPANSSWLNSKNSKIKSGVISSVSVPANYSKATQNKNKKKNKISVPKTEVWSSLGPPPDSAVASVPVETWQDIPLSKEAQLEKEKRERKEDWARKKAEIQARVAAASKDKSNEVDSDSEPEPARPITPPVHHSNIEKSESSEWTMANSKSGDSLKNAQLMANQKKNKKNKNNMEIPSANKVPSSQSSIVPSAPKVDSLIVEKVVAKTEPKNDENQDKPDLWNMPKLPSMTSMFSSFSLSGMFGMGTSYSDSSSMAAPPPGLENVVLTPPPGLGFPSPKSDDISFASAPILSHDDVKAKRERLEAEKQKNQKEAEKEDDGWVTTSKPKNNKKNNKK | not soluble
SGNLDDNKFTWVIKNVPTLNSDMLFSNYFVIGGCSWRVVAHSKENNFKESLSLTLIVAEDSAQKMGCGWSRYAKIIFTLVNQISEILSQRIETMFDQKSSVFSSETMFSIGKFDEHFAGFIVNGEIKIVVEFLEIIDKLVLSKESNPPFKKTKLNNDGEVSKDLIREVPVIMESIVVNGFHVLPSQVEFVKRIFEKHPDVAKEFRPTNRIVKTAYMNVLLSLIETLRQSPREISKNDLDGACGLLRSMKEAGFKLDWLEKKLNEVLEKKEKEESYETRMREIEEEMKDLKAKALDVGAPLRLDDVV | not soluble
MSLIEKLEEIFKKGSVTYYNSSYFFPKKIREDVTKLYAFVRVFDDLVDSVPQKIEEYYNLRKLYQLEKSGYNTGNIVLQNFVELARRKGFEDSWIDAFLDAMESDIYKKVYYSIEELLKYMYGSAEVVGLFMMKILDLHNDSMYYARMLGRAMQFLNFIRDVQEDLYLGRQYLPVEDMEKFGIDKMECNEGFIEFIRYEISRYFEFEREAEKGFKFIPARYLVPIKTASEMYKWSALRIKKSPCIVLSKKVKPRRTKIVITVIKNFAGVYLWRSLNPIEGHHHHHH | soluble
MGSDKIHHHHHHMTQLELLLERIIDRVNVNLRHQKFDVGDYVRRQTPHLHYSKFYAFYGLSADDPVHFHFKNSSLAGSYLLGRVNVLHSALYKSDIRGDELKRKGQHFVCDGKMIPLHDDEVITIKDSFLNKTLVHSNSHDPESPEEFTIRNTVAMPYANIHGSLTEGSFIGSFATVDLSTIHNSVVRYFSYVQTGELVGKCVEPGQIWIKSGDELEFHYSFDKAILDKYISQEAGSCPTGVLMEFVEVRQEDFEEVFASGHMASGAGSASGASVSGYAVIKGDTVIGENVLVSQRAYLDNAWMGKGSNAQENCYIINSRLERNCVTAHGGKIINAHLGDMIFTGFNSFLQGSESSPLKIGDGCVVMPHTIIDLEEPLEIPAGHLVWGYIRNKADLAAHSISFEEFAKVDGEVTMGRMTFRGKGGPFLDSFKKRIKRILSENGAFFDGSEGTGHAQKGKNFTFNIIQPYQDGDPRGMYPTILIQPNNGS | not soluble
MSQQVIIFDTTLRDGEQALQASLSVKEKLQIALALERMGVDVMEVGFPVSSPGDFESVQTIARQVKNSRVCALARCVEKDIDVAAESLKVAEAFRIHTFIATSPMHIATKLRSTLDEVIERAIYMVKRARNYTDDVEFSCEDAGRTPIADLARVVEAAINAGATTINIPDTVGYTMPFEFAGIISGLYERVPNIDKAIISVHTHDDLGLAVGNSLAAVHAGARQVEGAMNGIGERAGNCSLEEVIMAIKVRKDILNVHTAINHQEIWRTSQLVSQICNMPIPANKAIVGSGAFAHSSGIHQDGVLKNRENYEIMTPESIGLNQIQLNLTSRSGRAAVKHRMDEMGYKESEYNLDNLYDAFLKLADKKGQVFDYDLEALAFIGKQQEEPEHFRLDYFSVQSGSNDIATAAVKLACGEEVKAEAANGNGPVDAVYQAINRITDYNVELVKYSLTAKGHGKDALGQVDIVANYNGRRFHGVGLATDIVESSAKAMVHVLNNIWRATEVEKELQRKAQHNENNKETV | not soluble
MGSDKIHHHHHHMRIAYLSSAYLAPVEYYTKLLEYDKIYVEQHDHYIKQTYRNRCTIAGPDGELALSIPTVKPDTLKCPMKDIRISDHGNWRHLHWNAIESAYNSTPYFEYYKDDFRPFYEKKYEFLADFNEELCQLVCKLIDIQPCIERTSEYKTEFTTEETDFREIIHPKKDFQIADPEFVPHPYYQVFDSKLGFLPNLSIIDLLFNMGPESLLVLTSK | not soluble
MTSYKPEYLIPNLLDLVAEGEGLRIEFKRLIHSAPKIARSITAFANTSGGVILIGVDDDRRIVGIQSEKEALQVIDEAMRFHIEPKPRIEVHFEEFKRRMVLLVDIPKSPERPHFHIEPLIRRDTGKHGVERRVFIRDGSHNKAASDDRIELMLSSREPLKVAFTGRERCLLDWLNEHDRITAEEFADSAGIPMKEARRILVSLVRAGALRLDTANGDNSYTLAHRLEHHHHHH | soluble
MGSDKIHHHHHHMEIGLIDIKGTLPCFENFGNLPTKIIHENNISKIKDLEMLIIPGGSIVESGSFTDEFKKQILDFDNYIVGICSGFQILSEKIDIGRKSPIPIIKEGLGLLNVEFSPLICTDLVKFNIENDNLFGKKNQLGHGFHCHTYGNIEITNNSTKIWTTSEIEKLNYKMVGKQNILSGVFKNKVYGTMVHNLLDNDFVVENFLKNMKIKDDEKQEIFKKNSILKEKLKDRSKISENFKKIESNDKKGIILLATGSESGKTFLSTSICSKLKGKTFVSKIGPDVRDIVPSLYLLREPMTKFSSIKLSDRGWSEPSEFLEFVKNSKFNNYIIEGVMGAFTGALNKKNYSGSEVSKILGFPVYIISSCSKTGIEGSFVECMAYHSLLKEMGVNVAGIVLNRVYNAELLEKVKKIANDLNIDLIGVNKLNVNVDNKRGLIPEVEIDYEEFCNATMKLDFEIDIPKINPEKINEDSKTFEEYLKIWSEKLININ | not soluble
